{"source": "patent US20240287202A1", "about": "(XYPHOS BIOSCIENCES, published 2024)", "key": {"[1]": {"biological_target": "T1, A1-A2 domain of human MICA*001 with C-terminal 6x-His tag (monomer) (human, UniProt Q29983 24-205)", "T1 construct": "range 24-205; also called MIC-His ligand", "T1 sequence": "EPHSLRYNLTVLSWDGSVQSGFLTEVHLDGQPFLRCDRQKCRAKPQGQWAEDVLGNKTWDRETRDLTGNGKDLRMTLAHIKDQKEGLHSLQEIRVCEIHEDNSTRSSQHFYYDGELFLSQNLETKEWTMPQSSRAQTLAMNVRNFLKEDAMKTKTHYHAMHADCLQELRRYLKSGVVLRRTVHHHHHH", "experiment": "Octet BLI, Fc-iNKG2D.AF on AHC tips, monomeric ligand (FIG. 3A)", "text": "(§1) Library design and phage panning performed was as described for iNKG2D. […] Data are representative of two experiments. […] Error bars represent ±SD of technical replicates."}, "[2]": {"biological_target": "T2, A1-A2 domain of human ULBP3 with C-terminal 6x-His tag (monomer) (human, UniProt Q9BZM4 30-212)", "T2 construct": "range 30-212; also called MIC-His ligand", "T2 sequence": "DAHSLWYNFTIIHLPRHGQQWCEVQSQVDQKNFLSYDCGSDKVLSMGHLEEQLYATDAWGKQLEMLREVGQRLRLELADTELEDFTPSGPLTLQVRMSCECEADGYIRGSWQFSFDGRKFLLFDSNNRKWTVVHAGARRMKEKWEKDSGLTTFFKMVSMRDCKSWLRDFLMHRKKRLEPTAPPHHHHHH", "experiment": "Octet BLI, Fc-iNKG2D.AF on AHC tips, monomeric ligand (FIG. 3A)", "text": "as §1"}, "[3]": {"biological_target": "T3, A1-A2 domain of human MICB with C-terminal 6x-His tag (monomer) (human, UniProt Q29980 24-205)", "T3 construct": "range 24-205; also called MIC-His ligand", "T3 sequence": "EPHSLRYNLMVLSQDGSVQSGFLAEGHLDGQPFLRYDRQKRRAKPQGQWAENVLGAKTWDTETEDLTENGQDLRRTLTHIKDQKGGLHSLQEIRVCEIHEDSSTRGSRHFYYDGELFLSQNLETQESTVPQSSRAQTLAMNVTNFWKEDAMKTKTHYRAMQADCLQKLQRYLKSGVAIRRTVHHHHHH", "experiment": "Octet BLI, response against concentration (legend: monomeric ligands; axis on the sheet: nM Fc-iNKG2D.AF)"}}, "data": [{"binder": "Fc-iNKG2D.AF (NKG2D ectodomain Y152A/Y199F fused to the C-terminus of human IgG1 Fc) (Fc fusion, range 78-216; also called Fc-NKG2D.AF; not shown: human IgG1 Fc) IEGRFLNSLFNQEVQIPLTESYCGPCPKNWICYKNNCYQFFDESKNWYESQASCMSQNASLLKVYSKEDQDLLKLVKSAHWMGLVHIPTNGSWQWEDGSILSPNLLTIIEMQKGDCALYASSFKGFIENCSTPNTYICMQRTV", "values": [{"measurement": "binding result", "setting": "[1]", "value": "no binding"}, {"measurement": "binding result", "setting": "[2]", "value": "no binding"}, {"measurement": "binding result", "setting": "[3]", "value": "binds"}]}]}
